This test has as its target GST-TRIP8b(1b-2) full. As to the kind of experiment: pull-down.

Substance “clathrin (from UniProt P11442 1-1675; P08081 1-248) (complex)” gave a fraction of loaded clathrin in the eluate (fraction of loaded clathrin) of more than 0.67.

The values are drawn from publication PMC3166428.
